T1: B-cat-Halo (UniProt P35222 1-781)
T1 sequence (looked up): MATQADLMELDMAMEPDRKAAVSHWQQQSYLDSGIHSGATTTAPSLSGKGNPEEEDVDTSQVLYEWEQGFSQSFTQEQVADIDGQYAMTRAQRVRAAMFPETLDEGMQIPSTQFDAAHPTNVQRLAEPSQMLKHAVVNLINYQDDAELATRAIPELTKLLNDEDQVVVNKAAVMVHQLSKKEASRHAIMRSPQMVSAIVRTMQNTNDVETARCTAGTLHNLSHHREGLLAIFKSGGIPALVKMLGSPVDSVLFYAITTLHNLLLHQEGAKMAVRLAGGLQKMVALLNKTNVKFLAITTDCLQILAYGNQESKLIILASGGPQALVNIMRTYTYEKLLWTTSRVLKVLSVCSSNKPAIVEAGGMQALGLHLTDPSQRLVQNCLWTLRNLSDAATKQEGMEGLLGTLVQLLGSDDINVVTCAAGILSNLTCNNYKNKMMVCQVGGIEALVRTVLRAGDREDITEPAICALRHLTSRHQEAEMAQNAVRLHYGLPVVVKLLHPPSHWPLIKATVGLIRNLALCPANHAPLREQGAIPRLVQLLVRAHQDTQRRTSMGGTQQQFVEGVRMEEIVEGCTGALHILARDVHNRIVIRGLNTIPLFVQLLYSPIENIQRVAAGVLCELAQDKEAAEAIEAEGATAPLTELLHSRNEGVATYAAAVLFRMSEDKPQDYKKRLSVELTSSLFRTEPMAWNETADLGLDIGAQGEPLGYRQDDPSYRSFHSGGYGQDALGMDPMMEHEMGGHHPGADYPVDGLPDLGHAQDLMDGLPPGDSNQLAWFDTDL

T2: full-length beta-Catenin (Uniprot ID P35222) (Homo sapiens (Human), UniProt P35222 2-781)
T2 construct: also called bCat; B-Catenin
T2 sequence: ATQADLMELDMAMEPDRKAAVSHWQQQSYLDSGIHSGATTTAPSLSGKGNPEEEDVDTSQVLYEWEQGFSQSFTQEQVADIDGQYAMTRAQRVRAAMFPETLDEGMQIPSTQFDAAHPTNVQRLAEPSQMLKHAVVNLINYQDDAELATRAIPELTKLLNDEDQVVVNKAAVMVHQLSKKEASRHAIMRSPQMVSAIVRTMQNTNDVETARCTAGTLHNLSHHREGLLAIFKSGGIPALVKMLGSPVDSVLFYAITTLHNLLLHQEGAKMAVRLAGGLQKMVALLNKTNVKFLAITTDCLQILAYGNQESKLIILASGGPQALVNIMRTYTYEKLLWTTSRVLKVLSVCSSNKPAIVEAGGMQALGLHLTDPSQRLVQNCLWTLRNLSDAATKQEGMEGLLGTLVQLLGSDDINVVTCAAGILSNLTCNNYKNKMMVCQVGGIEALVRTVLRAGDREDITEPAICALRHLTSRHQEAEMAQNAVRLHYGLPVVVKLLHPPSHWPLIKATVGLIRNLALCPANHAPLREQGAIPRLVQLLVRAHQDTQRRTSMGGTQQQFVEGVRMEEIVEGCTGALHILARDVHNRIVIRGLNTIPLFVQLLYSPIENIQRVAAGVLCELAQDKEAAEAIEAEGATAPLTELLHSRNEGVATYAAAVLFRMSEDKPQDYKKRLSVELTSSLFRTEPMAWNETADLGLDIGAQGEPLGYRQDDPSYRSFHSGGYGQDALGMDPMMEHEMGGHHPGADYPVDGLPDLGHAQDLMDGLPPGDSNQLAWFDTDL

T3: full-length beta-Catenin (Uniprot ID P35222) (Homo sapiens (Human), UniProt P35222 1-781)
T3 construct: Tags are not described; Also used here as the target of the DLD1 TCF reporter read-out (endogenous beta-catenin in DLD1 cells); also called bCat; B-Catenin
T3 sequence: T1 sequence (looked up)

T4: beta-catenin (Homo sapiens (Human), UniProt P35222 1-781)
T4 construct: The FP protocol says full-length beta-Catenin (Uniprot ID P35222); also called full-length beta-Catenin; bCat
T4 sequence: T1 sequence (looked up)

B1: I-1047 (peptide)
peptide: Ac-[αAllylPro]DF[B5(16)]DDAAFN[PyrS2″][Phe(2-Cl)][Bta]S-NH2
modifications: staple 1-4, 4-11
notes: also called Ac-PL3-Asp-Phe-B5-Asp-Asp-Ala-Ala-Phe-Asn-PyrS2-2C1F-BztA-Ser-NH2
B2: I-1142 (peptide)
peptide: Ac-[αAllylPro]DF[B5]DDAAFS[PyrS2][Phe(2-Cl)][Bta][dT]-NH2
modifications: staple 1-4, 4-11
notes: Stapled (stitched) peptide by olefin metathesis; E/Z isomer(s) of the staples not assigned
B3: I-1143 (peptide)
peptide: Ac-[αAllylPro]DF[B5]DDAAFS[PyrS2][Phe(2-Cl)][Bta][hSer]-NH2
modifications: staple 1-4, 4-11
notes: as for B2
B4: I-1145 (peptide)
peptide: Ac-[αAllylPro]DF[B5]DDAAFL[PyrS2][Phe(2-Cl)][Bta]T-NH2
modifications: staple 1-4, 4-11
notes: as for B2
B5: I-1144 (peptide)
peptide: Ac-[αAllylPro]DF[B5]DDAAFS[PyrS2][Phe(2-Cl)][Bta]L-NH2
modifications: staple 1-4, 4-11
notes: as for B2
B6: I-1146 (peptide)
peptide: Ac-[αAllylPro]DF[B5]DDAAFL[PyrS2][Phe(2-Cl)][Bta][dT]-NH2
modifications: staple 1-4, 4-11
notes: as for B2
B7: I-1049 (peptide)
peptide: Ac-[αAllylPro]DF[B5(4)]DDAAFT[PyrS2″][Phe(2-Cl)][Bta]S-NH2
modifications: staple 1-4, 4-11
notes: also called Ac-PL3-Asp-Phe-B5-Asp-Asp-Ala-Ala-Phe-Thr-PyrS2-2C1F-BztA-Ser-NH2

Starred links: 1 amine or outer side, 2 acyl side, 3 side chain; linkers in the order of their positions; H or OH if unused. Positions of bridges follow the written chain, without caps; N, C: chain ends. Non-standard residues stand in square brackets, D forms with d. Primed or numbered codes have the meaning given here. PyrS2″ = (S)-3-amino-1-((pent-4-en-1-yloxy)carbonyl)pyrrolidine-3-carboxylic acid (stapling residue), C=CCCCOC(=O)N1CC[C@@](N[*:1])(C(=O)[*:2])C1; B5(16) = 2-amino-2-(pent-4-en-1-yl)hept-6-enoic acid = 2,2-bis(4-pentenyl)glycine (stitching residue), C=CCCCC(CCCC=C)(N[*:1])C(=O)[*:2]; B5(4) = 2,2-bis(4-pentenyl)glycine = 2-amino-2-(pent-4-en-1-yl)hept-6-enoic acid (stitching residue), C=CCCCC(CCCC=C)(N[*:1])C(=O)[*:2]; PyrS2 = (S)-3-amino-1-((pent-4-en-1-yloxy)carbonyl)pyrrolidine-3-carboxylic acid, C=CCCCOC(=O)N1CC[C@@](N[*:1])(C(=O)[*:2])C1; B5(19) = 2-amino-2-(pent-4-en-1-yl)hept-6-enoic acid (bis(4-pentenyl)glycine), C=CCCCC(CCCC=C)(N[*:1])C(=O)[*:2]; B5 = 2-amino-2-(pent-4-en-1-yl)hept-6-enoic acid, C=CCCCC(CCCC=C)(N[*:1])C(=O)[*:2]; Phe(2-Cl) = N[C@@H](Cc1ccccc1Cl)C(=O)O; Bta = N[C@@H](Cc1csc2ccccc12)C(=O)O; αAllylPro = C=CC[C@@]1(C(=O)O)CCCN1; hSer = N[C@@H](CCO)C(=O)O

The target of one assay is T1, B-cat-Halo. Briefly: cell-based or functional assay.
With B1, the “NanoBRET Abs IC50” value is 28400 nM.

A further assay addresses T2, full-length beta-Catenin (Uniprot ID …). Briefly: fluorescence polarization competition, 5FAM-TCF4 10-53 probe on full-length beta-catenin. On the procedure: (§1) The plate was incubated protected from light for 60 minutes at 20° C. prior to read. Reads were performed on a CLARIOstar plate reader (BMG Labtech) in duplicate, and data were fitted to a 1:1 binding model with hill slope using an in-house script. All provided concentrations are final concentrations.
A general note: Polarisation of emitted light reports the rotation of a fluorescent probe.
Usually EC50 stands for the concentration at which the effect is half-maximal. Turning to B2, a half-maximal response (EC50) required 22 nM. That is a double-digit nanomolar value. Molecule B3 showed an EC50 of 12 nM. This EC50 lies about 1.8-fold lower than the previous one. On the same count and under the same terms, next, B4: 18 nM. Still for that read-out and setting: to B5 belongs 28 nM; to B6, 33 nM.

In a further assay the target is T3, full-length beta-Catenin (Uniprot ID …). Briefly: fluorescence polarization competition; full-length beta-catenin with 5FAM-TCF4(10-53) probe, peptide titrated. On the procedure:
as §1
As usually defined, the IC50 is the concentration that gives 50% inhibition. The low end stands for inhibition by little substance, the high end for a need for much substance. In turn, B7 gave a 50% inhibitory concentration (IC50) of 6 nM. This counts as single-digit nanomolar. Take B1: the IC50 was 5 nM. This IC50 and that of the molecule before are within 1.5-fold of each other.

The next assay deals with T4, beta-catenin. Briefly: fluorescence polarization competition; full-length beta-catenin with 5FAM-TCF4(10-53) probe as competitor. The procedure, abridged: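 Fluorescence polarization was read in duplicate after the plate sat 60 minutes at 20° C. shielded from light. Values come from fitting to a 1:1 binding model with hill slope.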
Turning to Ac-[αAllylPro]DL[B5(4)]DDAAFL[PyrS2″][Phe(2-Cl)][Bta]L-NH2 (staple 1-4, 4-11; also: staple isomer composition of earlier HPLC peak, stapled peptide) [I-1418], the EC50 turned out to be 106 nM.

Molecule Ac-[αAllylPro]DS[B5(4)]DDAAFL[PyrS2][Phe(2-Cl)][Bta]L-NH2 (staple 1-4, 4-11, stapled peptide) [I-1423] yielded a concentration for a half-maximal effect (EC50) of 389 nM. In turn, Ac-[αAllylPro]DL[B5(19)]DDAAFL[PyrS2]F[Bta]Q-NH2 (staple 1-4, 4-11, stapled peptide) [I-1402] registered a concentration for a half-maximal effect (EC50) of 9 nM. On the same count and under the same terms, to Ac-[αAllylPro]DN[B5(4)]DDAAFL[PyrS2″][Phe(2-Cl)][Bta]L-NH2 (staple 1-4, 4-11, stapled peptide) [I-1422] belongs 388 nM; to Ac-[αAllylPro]DT[B5(4)]DDAAFL[PyrS2][Phe(2-Cl)][Bta]L-NH2 (staple 1-4, 4-11, stapled peptide) [I-1424], 235 nM. The same measure, in the same setting: to Ac-[αAllylPro]DL[B5(4)]DDAAFL[PyrS2″][Phe(2-Cl)][Bta]L-NH2 (staple 1-4, 4-11; also: staple isomer composition of later HPLC peak, stapled peptide) [I-1419] belongs 152 nM.
